# Measurements published in the nanobody polyreactivity screen of Harvey et al. (2022).
# Assay: yeast display, Sf9 membrane polyspecificity reagent, FACS + sequencing; frameworks hold sequencing errors
# Method in brief: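 In a synthetic yeast display library (Saccharomyces cerevisiae BJ5465), nanobody expression was induced with galactose for 36–48 hours. FACS gates were set low and high (top ~1%) using anti-HA fluorescence for expression and streptavidin fluorescence for binding of the Sf9 membrane reagent. Each polyreactivity label is drawn from the gate of origin.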
row,Sequence,polyreactivity (PSR sort gate)
1,QVQLVESGGGLVQAGGSLRLSCPASGRTIEGYAMGWYRQATGKERELVAAISRRGGSTYYADSVKGRFTISRDNAKNTVFLQMNSLKPEDTAVYYCAARDASTGAVRYYYWGQGTQVTVSS,high polyreactivity
2,QVQLVESGGGLVQAGGSLRLSCPASGRTMVLNMGCYRHAPGKERELVATINSGGSTYYADSVKGRFTISRDNAKNTVYLQMNSLKPEDTAVYYCAVLSSDGKFDYWGQGTQVTVSS,low polyreactivity
3,QVQLVESGGGLVQAGGSLRLSCPASGSIFDYYAMGWYRQPPGKEREMVAAINISGGDTYYADSVKGRFTISRDNAKNTVYLQMNSLKPEDTAVYYCAADWVTWWFSRVGWDYGYWGQGTQVTVSS,low polyreactivity
4,QVQLVESGGGLVQAGGSLRLSCPASGSIFNKNAMGWYRQAPGKERELVAAISSGGSTYYADSVKGRFTISRDNAKNTVYLQMNSLKPEDTAVYYCARGASFYQKFYYWGQGTQVTVSS,high polyreactivity
5,QVQLVESGGGLVQAGGSLRLSCPASGSIFPHYAMGWYRQAPGKERELVAAISRSGTSTYYADSVKGRFTISRDNAKNTVYLQMNSLKPEDTAVYYCNAYQVYTRTYGYWGQGTQVTVSS,high polyreactivity
6,QVQLVESGGGLVQAGGSLRLSCPASGSIFSLNAMGWYRQAPGKERELVAGISWSGGSTYYADSVKGRFTISRDNAKNTVYLQMNSLKPEDTAVYYCAARRYYPYISSGPYYYWGQGTQVTVSS,high polyreactivity
7,QVQLVESGGGLVQAGGSLRLSCPASGSILYYYTMGWYRQAPGKERELVAAITYSGGSSYYADSVKGRFTISRDNAKNTVYLQMNSLKPEDTAVYYCAAAHSNRGVRKWEPLYFWGQRTQVTVSS,low polyreactivity
8,QVQLVESGGGLVQAGGSLRLSCPASGSTFARNAMGWSRQAPGKEREFVASIRWGGGSTYYADSVKARFTISRDNAKNTVYLQMNSLKAEDTAVYYCATRGWSKHLFGGYTQYYYWGQGTQVTVSS,high polyreactivity
9,QVQLVESGGGLVQAGGSLRLSCPASGSTFVKNAMGWYRQAPGKERELVAAITARGGSTFYADSVKGRFTISRDNAKNTVYLQMISLTPEDTSVYYCADNGPRTYRLKDDYWGQGTQVTVSS,high polyreactivity
10,QVQLVESGGGLVQAGGSLRLSCPAYGSTFGEYAMGWYRQKPGKERELVATITSAGSTYYADSVKGRFTISRDNAKNTVYLLMNSLKPEDTAVYYCAVDPISQGHMDYWGQGTQVTVSS,low polyreactivity
11,QVQLVESGGGLVQAGGSLRLSCSASGFIFWYNAMGWYRQAPGKERELVAAITTAGSTNYADSVKGRFTISRDNAKNTVYLQMNSLKPEDTAVFYCNKVQLRNRYPYRYGFGDVGYWGQGTQVTVSS,low polyreactivity
12,QVQLVESGGGLVQAGGSLRLSCSASGFTFFYYAMGWYRQAPGKERELVASISSGGSSTYYADSVKGRFTISRDNAKNTVYLQMNSLKPEDTAVYYFAATSRYRGSWYYYWGQGTQVTVSS,high polyreactivity
13,QVQLVESGGGLVQAGGSLRLSCSASGFTFRVNALGWYRQAPGKERELVAAITYSGGSTYYADSVKGRFTISRDNAKNTVYLQMNSLNPEDTAVYYCAAGYFFPRLRFRNYAYGYWGQGTQVTVST,high polyreactivity
14,QVQLVESGGGLVQAGGSLRLSCSASGFTFRWYTMGWYTQSPGNERELVAAINYSGGSTYYADSVKGRFTISRDNAKNTVYLQMNSLKPEDTAVYYCAAQIYFPGRRYDYWGQGTQVTVSS,high polyreactivity
15,QVQLVESGGGLVQAGGSLRLSCSASGFTSRKNAMGWYRQAPGKERELVAAITQSSGRTYYADSVKGRFTISRDNAKNTVYLQMNSLKPEDTAVYYCAARRGGEDDYWGQGTQVTVSS,low polyreactivity
16,QVQLVESGGGLVQAGGSLRLSCSASGIIFDSYVMGWYRQAPGKERELVAAISFRGGSTYYADSVKGRFTISRDNAKNTVYLQMNSLKPEDTAVYYCAAEGRGYTEYYWGQGTQVTVSS,high polyreactivity
17,QVQLVESGGGLVQAGGSLRLSCSASGIIFGGNAMGWYRQAPGKERELVAGISSRGGSTYYADSVKGRFTISRDNAKNTVYLQMNSLKPEDTAVYYCAAVSSRRPGYEYYYWGQGTQVTVSS,high polyreactivity
18,QVQLVESGGGLVQAGGSLRLSCSASGITFIYYMGWYIQAPGKERELVAAITWSGGSTYYADSVKGRFTISRDNAKNTVYLQMNSLKPEDTAVYYCAAVRRAEEYDYCGQGTQVTVSS,low polyreactivity
19,QVQLVESGGGLVQAGGSLRLSCSASGRIFSANAMGWYRQAPVKERELVATISTGGGRTYYADSVKGRFTISRDNAKNTVYLQMNSLKPEDTAVYYCNATRNYARVRYYYWGQGNQVTVSS,high polyreactivity
20,QVQLVESGGGLVQAGGSLRLSCSASGRIFSPYAMGWYRQAPGKERELVAAISWRGSSTYYADSVKGRFTISPDNAKNTVYLQMNSLKPEDTAVYYCAAPSSKYWGQGTQVTVSS,low polyreactivity
21,QVQLVESGGGLVQAGGSLRLSCSASGRIFSTYAMGWYRQAPGKERELVAAINKIGGSTYYADSVKGRFTISRDNAKNTVYLQMNSLKPEDTAVYYCAADAPYYPVRRYYYWGQGTQVTVSS,low polyreactivity

row,Sequence,polyreactivity (PSR sort gate)
1,QVQLVESGGGLVQAGGSLRLSCSASGRILYSYSMGWYRQAPGKEREFVAAIRRSGGSTYYADSVKGRFTISRDNAKNTVYLQMNSLKPEDTAVYYCAAGRRYSGSYDYWGQGTQVTVSS,high polyreactivity
2,QVQLVESGGGLVQAGGSLRLSCSASGRTFANYAMGWYRQAPGKERELVAAISSGGNTYYADSVKGRCTISRDNAKNTVYLQMNSLKPEDTAVYYCAAQPYYYFDEYTQYDYWGQGTQVTVSS,high polyreactivity
3,QVQLVESGGGLVQAGGSLRLSCSASGRTFATNAMGWYRQAPGKERELVAAISGSGGRTYYADSVKGRFTISRDIAKNTVYLQMNSLKPEDTAVYYCAAQKVPYRATNYYYWGQGTQVTVSS,high polyreactivity
4,QVQLVESGGGLVQAGGSLRLSCSASGRTFDVYAMGWYRQAPGKERELVATIRSDGSTTYADSVKGRFTISRDNAKNTVYLQMNSLKPEDTAVYFCAADFRSGFSSSTTPVQSDWGQGTQVTVSS,low polyreactivity
5,QVQLVESGGGLVQAGGSLRLSCSASGRTFGYNAMGRYRQEPGKERELVAAINWSGASTYYADSVKGRFTISRDNAKNTVYLQMNSLKPEDTAVYYCAADYSYIYGFDYWGQGTQVTVSS,low polyreactivity
6,QVQLVESGGGLVQAGGSLRLSCSASGRTFSSNAMGWYRKAPGKERELVAAITWSGGTTYYADSVKGRFTISRDNAKNTVYLQMNSQKPEDTAVYYCNAKRRGYTASVGYWGQGTQVTVSS,high polyreactivity
7,QVQLVESGGGLVQAGGSLRLSCSASGRTNWLNAMGLYRQAPGKERELVATISSSSGSTTYADSVKGRFTISRDNAKNTVYLQMNSLKPEDTAVYYCNVDDPFYSGVVEFDYWGQGTQVTVSS,low polyreactivity
8,QVQLVESGGGLVQAGGSLRLSCSASGSIFGFYAMGWYRQEPGKERELVAAIDSGDSTNYADSVKGRFTISRDNAKNTVYLQMNSLKPEDTAVYYCNARYTLFARYGYDYWGQGTQVTVSS,low polyreactivity
9,QVQLVESGGGLVQAGGSLRLSCSASGSIFGSYAMGWYRQAPGKERELVARINTRGGSTYYADSVKGRFTISRDNAKYTVYIQMNSLKPADTAVYYCAKERRASVVRYDYWGQGTQVTVSS,low polyreactivity
10,QVQLVESGGGLVQAGGSLRLSCSASGSIFPFNAMGWYRQAPGKERELVAAIRWSDGRTYYADSVKGRFTISRDNAKNTVYLQMNSLKPEDTAVYYCAAKSYWGQGTQVTVSS,high polyreactivity
11,QVQLVESGGGLVQAGGSLRLSCSASGSIFRYNAMGWYRQAPGKERELVAGITSGGSTNYADSVKGRFTISRDNAKNTVYLQMNSLKPEDTAVYYCATGTRSYYRWWRLMNYWGQGTQVTVSS,high polyreactivity
12,QVQLVESGGGLVQAGGSLRLSCSASGSIIYANAMGWYRPAPGKEREFVATITDSGAITYYADSVKGRFTISRDNAKNTVYLQMNSLKPEDTAVYYCNKDLVVYYVPTHDYDYWGQGTQVTVSS,low polyreactivity
13,QVQLVESGGGLVQAGGSLRLSCSASGSISHYAMGWYRQAPGKERELVAAISRRGGSTYYADSVKGRFTISRDNAKNTVYLQKNSLKPEDTAVYYCNKATSYFTVRGYDYCGQGTQVTVSS,high polyreactivity
14,QVQLVESGGGLVQAGGSLRLSCSASGSTFHRYAMGWYIQAPGKERELVARINGSGGSTYYADSVKGRFTISRDNAKNTVYLQMNSLKPEDSAVYYCAADGLYYTYGYDYWGQGTQVTVSS,low polyreactivity
15,QVQLVESGGGLVQAGGSLRLSCSASGSTFRWNAMGWYRQAPGKERELVASITSGGSTNYADSVKGRFTMSRDNAKNTVYLQLNSLKPEDTAVSYCNADVRRYSNYVWLYDYWGQGTQVTVSS,low polyreactivity
16,QVQLVESGGGLVQAGGSLRLSCSASGSTLAKYAMGWYRQAPGKERELVAAISWSGGRTYYADSVKGRFTISRDNAKNTVYLPMNSLKPEDTAVYYGAARALSSRTYHDDYWGQGTQVTVSS,high polyreactivity
17,QVQLVESGGGLVQAGGSLRLSCSATGFIFYRYAMGWYRQAPGKERELVAAISSSGGSTYYADSVKGRFTISRDNAKTTVSLQMNSLKPEDTAVYYCNKRPQQYRPGYDYWGQGTQVTVSS,high polyreactivity
18,QVQLVESGGGLVQAGGSLRLSCSAYGLILRTYGMGWYRQAPGKERELVAVISSGGSTYYADSVKGRFTISRDNEKNTVYLQMNSLKPEDTAVYYCAVRSSWYEGDYWGQGTQVTVSS,low polyreactivity
19,QVQLVESGGGLVQAGGSLRLSCSDSGFIYRMYAMGWYRQAHGKETELVSAISSDASTNYADSVKGRFTISRDNAKNTVYLQMNSLKPEDTAVYYCAAAVKRGYAQSFISDGYGYWGQGTQVTVSS,low polyreactivity
20,QVQLVESGGGLVQAGGSLRLSCSPSGSILYGNAMGWYRQAPGKERELVAAITSGGSTYYADSVKGRFTISRDNAKNTVYLQMNSLKPEDTAVYYCNTVWATKGDYWGHGTQVTVSS,high polyreactivity
